Assay results reported in the supplement of paper PMC9116672.
± gives the standard deviation of the averaged measurements or the uncertainty stated by the source.

What was measured:
[1] = duplex formation enthalpy ΔH (Van't Hoff fit of HRM Tm); higher = less exothermic duplex formation; settings: temperature for dG: 50 °C, NaCl: 500 mM (unadjusted)
Procedure: (§1)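 Duplex of the listed DNA strand with its complement, in 1x NNE buffer (500 mM NaCl, pH 7.0) with 1x EvaGreen. ΔH and ΔS come from a Van't Hoff linear fit of 1/Tm against ln(CT/4) over 1-20 uM, using HRM Tm values.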

[2] = duplex formation entropy ΔS (Van't Hoff fit of HRM Tm); higher = smaller entropy loss on duplex formation; settings: temperature for dG: 50 °C, NaCl: 500 mM (unadjusted)
Procedure: as §1

[3] = duplex formation free energy ΔG50 (Van't Hoff fit of HRM Tm); higher = less stable duplex; settings: temperature for dG: 50 °C, NaCl: 500 mM (unadjusted)
Procedure: as §1

[4] = duplex melting temperature (HRM, EvaGreen); higher = more stable duplex
Procedure: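 Listed DNA strand annealed 1:1 with its complementary strand (95 °C 5 min, 0.1 °C/s to 20 °C). Melted in 1x NNE buffer (500 mM NaCl, 10 mM Na2HPO4, 1 mM EDTA, pH 7.0) with 1x EvaGreen on a LightCycler96 (37 to 97 °C, 0.1 °C/s). Tm is the peak of -dF/dT at the stated total duplex concentration; 4 replicates are averaged. PS oligos are non-stereospecific (Rp/Sp mixtures).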

[5] = backbone: PO-PO (both strands phosphodiester DNA)
[6] = backbone: PS-PO (listed strand fully phosphorothioate, complement phosphodiester)
[7] = backbone: PS-PS (both strands fully phosphorothioate)
[8] = duplex concentration 1 µM, backbone: PO-PO (both strands phosphodiester DNA)
[9] = duplex concentration 1 µM, backbone: PS-PO (listed strand fully phosphorothioate, complement phosphodiester)
[10] = duplex concentration 1 µM, backbone: PS-PS (both strands fully phosphorothioate)
[11] = duplex concentration 2.5 µM, backbone: PO-PO (both strands phosphodiester DNA)
[12] = duplex concentration 2.5 µM, backbone: PS-PO (listed strand fully phosphorothioate, complement phosphodiester)
[13] = duplex concentration 2.5 µM, backbone: PS-PS (both strands fully phosphorothioate)
[14] = duplex concentration 5 µM, backbone: PO-PO (both strands phosphodiester DNA)
[15] = duplex concentration 5 µM, backbone: PS-PO (listed strand fully phosphorothioate, complement phosphodiester)
[16] = duplex concentration 5 µM, backbone: PS-PS (both strands fully phosphorothioate)
[17] = duplex concentration 7.5 µM, backbone: PO-PO (both strands phosphodiester DNA)
[18] = duplex concentration 7.5 µM, backbone: PS-PO (listed strand fully phosphorothioate, complement phosphodiester)
[19] = duplex concentration 7.5 µM, backbone: PS-PS (both strands fully phosphorothioate)
[20] = duplex concentration 10 µM, backbone: PO-PO (both strands phosphodiester DNA)
[21] = duplex concentration 10 µM, backbone: PS-PO (listed strand fully phosphorothioate, complement phosphodiester)
[22] = duplex concentration 10 µM, backbone: PS-PS (both strands fully phosphorothioate)
[23] = duplex concentration 15 µM, backbone: PO-PO (both strands phosphodiester DNA)
[24] = duplex concentration 15 µM, backbone: PS-PO (listed strand fully phosphorothioate, complement phosphodiester)
[25] = duplex concentration 15 µM, backbone: PS-PS (both strands fully phosphorothioate)
[26] = duplex concentration 20 µM, backbone: PO-PO (both strands phosphodiester DNA)
[27] = duplex concentration 20 µM, backbone: PS-PO (listed strand fully phosphorothioate, complement phosphodiester)
[28] = duplex concentration 20 µM, backbone: PS-PS (both strands fully phosphorothioate)

Sequence | duplex formation enthalpy ΔH [1, 5] [kcal/mol] | duplex formation enthalpy ΔH [1, 6] [kcal/mol] | duplex formation enthalpy ΔH [1, 7] [kcal/mol] | duplex formation entropy ΔS [2, 5] [cal/mol/K] | duplex formation entropy ΔS [2, 6] [cal/mol/K] | duplex formation entropy ΔS [2, 7] [cal/mol/K] | duplex formation free energy ΔG50 [3, 5] [kcal/mol] | duplex formation free energy ΔG50 [3, 6] [kcal/mol] | duplex formation free energy ΔG50 [3, 7] [kcal/mol] | duplex melting temperature [4, 8] [°C] | duplex melting temperature [4, 9] [°C] | duplex melting temperature [4, 10] [°C] | duplex melting temperature [4, 11] [°C] | duplex melting temperature [4, 12] [°C] | duplex melting temperature [4, 13] [°C] | duplex melting temperature [4, 14] [°C] | duplex melting temperature [4, 15] [°C] | duplex melting temperature [4, 16] [°C] | duplex melting temperature [4, 17] [°C] | duplex melting temperature [4, 18] [°C] | duplex melting temperature [4, 19] [°C] | duplex melting temperature [4, 20] [°C] | duplex melting temperature [4, 21] [°C] | duplex melting temperature [4, 22] [°C] | duplex melting temperature [4, 23] [°C] | duplex melting temperature [4, 24] [°C] | duplex melting temperature [4, 25] [°C] | duplex melting temperature [4, 26] [°C] | duplex melting temperature [4, 27] [°C] | duplex melting temperature [4, 28] [°C]
GCTGTGAAACAATGTAG | -82.5 ± 3.5 | -78.8 ± 1.9 | -82.8 ± 2.5 | -217 ± 10 | -211 ± 5.7 | -231 ± 7.8 | -12.3 ± 0.16 | -10.46 ± 0.049 | -8.078 ± 0.024 | 60.4 ± 1.3 | 52.85 ± 0.06 | 43.66 ± 0.19 | 62.76 ± 0.31 | 55.41 ± 0.29 | 45.72 ± 0.19 | 64.54 ± 0.42 | 57.39 ± 0.24 | 47.54 ± 0.13 | 65.61 ± 0.42 | 58.44 ± 0.21 | 48.34 ± 0.13 | 66.58 ± 0.4 | 59.19 ± 0.24 | 49.09 ± 0.059 | 67.8 ± 0.33 | 60.21 ± 0.11 | 50.25 ± 0.24 | 68.65 ± 0.32 | 61.12 ± 0.092 | 51.09 ± 0.3
GGTGGCGTTCTT | – | -45.3 ± 2.7 | -41.1 ± 3.2 | – | -111 ± 8.2 | -101 ± 9.8 | – | -9.41 ± 0.08 | -8.491 ± 0.033 | – | – | 40.15 ± 0.21 | 61.9 | – | 44.6 ± 0.65 | 63 ± 0.79 | – | 48.03 ± 0.26 | 64.6 ± 0.54 | 57 | 49.76 ± 0.44 | 65.58 ± 0.13 | 58.31 ± 0.53 | 51.3 ± 0.97 | 66.42 ± 0.23 | 60.44 ± 0.39 | 53.7 ± 1.4 | 67.68 ± 0.13 | 61.54 ± 0.24 | 55.8 ± 0.86
GGTTGCGGTGGCCAAC | -83.4 ± 4.7 | – | – | -213 ± 13 | – | – | -14.7 ± 0.36 | – | – | – | – | – | 72.47 ± 0.19 | – | – | 74.78 ± 0.39 | 59.24 ± 0.17 | – | 75.96 ± 0.48 | 59.89 ± 0.26 | 53.12 ± 0.24 | 76.87 ± 0.44 | 60.61 ± 0.24 | 53.68 ± 0.31 | 77.98 ± 0.31 | 61.52 ± 0.21 | 54.3 ± 0.32 | 78.76 ± 0.29 | 62.17 ± 0.44 | 54.47 ± 0.31
GTCATTGTGCTTTTGC | -78.5 ± 1.9 | -69.8 ± 2.2 | -79.9 ± 3.5 | -205 ± 5.7 | -186 ± 6.7 | -221 ± 11 | -12.27 ± 0.096 | -9.798 ± 0.043 | -8.432 ± 0.028 | 60.6 | 49.8 ± 0.38 | 45.054 ± 0.018 | 63.26 ± 0.54 | 52.96 ± 0.069 | 46.77 ± 0.14 | 65.29 ± 0.25 | 55.24 ± 0.19 | 48.65 ± 0.052 | 66.35 ± 0.14 | 56.46 ± 0.16 | 49.65 ± 0.053 | 67.27 ± 0.084 | 57.2 ± 0.17 | 50.58 ± 0.096 | 68.53 ± 0.17 | 58.37 ± 0.089 | 51.65 ± 0.14 | 69.4 ± 0.17 | 59.15 ± 0.096 | 52.76 ± 0.13
GTGAAACAATGCTGTAG | -76.6 ± 3 | -75.5 ± 2 | -72.1 ± 2 | -199 ± 8.8 | -201 ± 6.2 | -197 ± 6.4 | -12.1 ± 0.14 | -10.63 ± 0.061 | -8.41 ± 0.018 | 60.8 | – | 43.88 ± 0.29 | 62.87 ± 0.2 | 56.26 ± 0.25 | 46.82 ± 0.2 | 65.1 ± 0.46 | 58.51 ± 0.13 | 48.72 ± 0.15 | 66.14 ± 0.17 | 59.58 ± 0.12 | 49.72 ± 0.1 | 67.07 ± 0.17 | 60.43 ± 0.12 | 50.48 ± 0.19 | 68.31 ± 0.14 | 61.59 ± 0.25 | 51.63 ± 0.11 | 69.27 ± 0.11 | 62.36 ± 0.4 | 52.66 ± 0.18
GTGAGCAGAAGGGGTT | -71 ± 3.3 | -71.4 ± 2 | -66.3 ± 3 | -180 ± 9.6 | -184 ± 6 | -174 ± 8.9 | -12.7 ± 0.19 | -11.81 ± 0.093 | -10.06 ± 0.071 | 64.4 ± 0.57 | 59.41 ± 0.21 | 51.01 ± 0.18 | 66.59 ± 0.48 | 62.57 ± 0.13 | 54.75 ± 0.25 | 68.752 ± 0.066 | 64.68 ± 0.15 | 56.88 ± 0.17 | 70.17 ± 0.27 | 66 ± 0.37 | 58.06 ± 0.31 | 71.2 ± 0.18 | 66.75 ± 0.18 | 58.956 ± 0.043 | 72.73 ± 0.15 | 68.05 ± 0.21 | 60.17 ± 0.3 | 73.73 ± 0.092 | 69.05 ± 0.47 | 60.93 ± 0.33
GTGGTACAAATGCGACC | -88 ± 1.9 | -80.9 ± 0.88 | -77.3 ± 2.9 | -229 ± 5.5 | -214 ± 2.6 | -209 ± 8.9 | -13.92 ± 0.12 | -11.87 ± 0.036 | -9.816 ± 0.052 | 66.7 | 58.59 ± 0.28 | 49.91 ± 0.4 | 68.46 ± 0.35 | 61.19 ± 0.13 | 52.86 ± 0.053 | 70.27 ± 0.1 | 63.12 ± 0.081 | 54.891 ± 0.046 | 71.34 ± 0.084 | 64.14 ± 0.075 | 55.93 ± 0.084 | 72.06 ± 0.12 | 65.04 ± 0.1 | 56.63 ± 0.12 | 73.205 ± 0.062 | 66.133 ± 0.0075 | 57.534 ± 0.054 | 74.14 ± 0.12 | 66.91 ± 0.08 | 58.25 ± 0.083
TAATTATACGAGTAGTTTCTGTCCTG | -127 ± 9.7 | -115 ± 4.5 | -89.9 ± 1.6 | -340 ± 28 | -312 ± 13 | -245 ± 4.8 | -17.6 ± 0.68 | -13.9 ± 0.21 | -10.75 ± 0.039 | 71.48 ± 0.47 | 62.1 ± 1.3 | 53.5 ± 0.9 | 72.48 ± 0.47 | 63.7 ± 0.66 | 55.8 ± 0.57 | 73.57 ± 0.43 | 65.23 ± 0.59 | 57.27 ± 0.51 | 74.63 ± 0.29 | 65.94 ± 0.5 | 58.41 ± 0.21 | 75.37 ± 0.084 | 66.63 ± 0.26 | 59.23 ± 0.13 | 76.277 ± 0.049 | 67.43 ± 0.14 | 60.07 ± 0.12 | 77.05 ± 0.094 | 67.855 ± 0.049 | 60.84 ± 0.17
TACTTCCAACGTAGG | -62.5 ± 1.4 | -61.3 ± 3 | – | -159 ± 4.2 | -160 ± 9.1 | – | -10.98 ± 0.06 | -9.629 ± 0.064 | – | – | 49.1 | 45.032 ± 0.023 | 59.72 ± 0.33 | 51.72 ± 0.075 | 45.59 ± 0.28 | 62 ± 0.17 | 55.02 ± 0.098 | 47.2 ± 0.46 | 63.52 ± 0.17 | 56.5 ± 0.21 | 48.26 ± 0.23 | 64.46 ± 0.077 | 57.42 ± 0.17 | 49.7 ± 0.78 | 66.07 ± 0.095 | 58.63 ± 0.099 | 50.85 ± 0.34 | 67.22 ± 0.12 | 59.46 ± 0.12 | 51.9 ± 0.73
